The values that follow are results of earlier work, collected in US20170240926A1, “METHODS FOR PRENYLATION OF PEPTIDES AND THEIR USE IN OVER-PRODUCTION OF FARNESENE AND GERANYLGERANYL TERPENES” (University of North Texas, priority 2016, published 2017).

This data set concerns the target FTase (Rattus norvegicus, UniProt Q02293+Q04631). The note with it: 10 μM FPP, 0.4-10 μM dansylated peptide, 25-300 nM FTase, 50 mM HEPPSO pH 7.8, 25° C.

As for “CFLS: peptide of the form dansyl-TKCxxx with C-terminal CFLS; SCAMPER”, the kfarn was 0.46 ± 0.05 s⁻¹.
